This note sets out measurements from paper PMC5173319, “Crenactin forms actin-like double helical filaments regulated by arcadin-2” (eLife, 2016).

Test [1] concerns the target Pyrobaculum calidifontis crenactin (Pyrobaculum calidifontis) (UniProt A3MWN5). Briefly: SPR; crenactin immobilised by amide coupling on CM5 chip (~2300 RU), Biacore T200, PBS-0.005% Tween 20, 20°C; arcadin-1 in 1:3 dilution series from 36.7 µM; equilibrium response fitted to a single site model. In general terms: Surface plasmon resonance follows binding to a sensor surface in real time, without labels.

For test [2], the target named is Pyrobaculum calidifontis arcadin-1 (Pyrobaculum calidifontis). Briefly: AUC; sedimentation equilibrium, arcadin-1 at 49.8, 99.5 and 199 µM, 7800, 11800 and 15,000 rpm, 20°C, 25 mM Tris-HCl pH 8.0, 100 mM NaCl, 1 mM EDTA; idealised single-species model.

Pyrobaculum calidifontis crenactin (Pyrobaculum calidifontis), sequence (A3MWN5 whole entry): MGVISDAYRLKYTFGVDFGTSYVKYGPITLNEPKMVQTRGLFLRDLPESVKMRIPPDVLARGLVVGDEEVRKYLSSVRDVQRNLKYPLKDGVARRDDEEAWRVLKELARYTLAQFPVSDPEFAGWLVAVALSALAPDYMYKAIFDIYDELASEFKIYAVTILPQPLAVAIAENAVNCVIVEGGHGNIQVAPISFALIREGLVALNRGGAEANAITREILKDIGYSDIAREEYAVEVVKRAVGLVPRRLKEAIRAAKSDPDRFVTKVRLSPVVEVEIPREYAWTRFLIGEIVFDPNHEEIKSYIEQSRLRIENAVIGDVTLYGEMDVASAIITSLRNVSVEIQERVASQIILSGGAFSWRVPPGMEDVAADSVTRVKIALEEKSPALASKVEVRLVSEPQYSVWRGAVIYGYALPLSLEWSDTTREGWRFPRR

As for “Pyrobaculum calidifontis arcadin-1 (natural protein)”, the Kd in test [1] stood at 15 µM. For the same substance, the stoichiometry N in test [2] amounted to 8.

As usually defined, the Kd is the equilibrium constant for the complex coming apart. A lower Kd goes with tighter binding. One may read the stoichiometry N as a count of units in the complex or per binding partner.
